Consider one molecule from article doi:10.1101/2022.01.11.475808, “Hypoxia Dynamically Regulates DBC1 Ubiquitination and Stability by SIAH2 and OTUD5 in Breast Cancer Progression” (bioRxiv, 2022).

One assay deals with T1, His-DBC1 (human, UniProt Q8N163 1-923).
T1 construct: Deleted in Breast Cancer 1 (DBC1, CCAR2), human, bacterially expressed as His-DBC1; also called His-tagged DBC1; source: E. coli BL21, purified
Kind of assay: pull-down; GST-SIAH2 and His-DBC1 proteins generated in E. coli, incubated in vitro overnight, then GST beads for 2 h at 4 °C. The settings on record: both partners purified.

Assay [1] has as its target T2, N-terminal half of His-DBC1 (1-461) (human, UniProt Q8N163 1-461).
T2 construct: source: E. coli, bacterially expressed
The description is as above. The settings on record: both partners purified.

T2 sequence (Q8N163 1-461): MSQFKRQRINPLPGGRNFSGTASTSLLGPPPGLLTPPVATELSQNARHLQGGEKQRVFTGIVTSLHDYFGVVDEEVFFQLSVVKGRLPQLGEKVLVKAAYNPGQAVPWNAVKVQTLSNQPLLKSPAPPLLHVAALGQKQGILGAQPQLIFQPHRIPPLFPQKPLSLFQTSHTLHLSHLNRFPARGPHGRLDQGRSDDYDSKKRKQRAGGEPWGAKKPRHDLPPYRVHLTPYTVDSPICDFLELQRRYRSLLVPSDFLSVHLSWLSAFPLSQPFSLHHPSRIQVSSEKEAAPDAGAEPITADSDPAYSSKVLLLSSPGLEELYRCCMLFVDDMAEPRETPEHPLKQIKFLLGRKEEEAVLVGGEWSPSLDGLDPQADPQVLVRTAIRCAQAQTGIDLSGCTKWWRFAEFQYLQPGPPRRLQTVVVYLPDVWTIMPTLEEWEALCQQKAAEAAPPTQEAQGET
T1 sequence (Q8N163 whole entry): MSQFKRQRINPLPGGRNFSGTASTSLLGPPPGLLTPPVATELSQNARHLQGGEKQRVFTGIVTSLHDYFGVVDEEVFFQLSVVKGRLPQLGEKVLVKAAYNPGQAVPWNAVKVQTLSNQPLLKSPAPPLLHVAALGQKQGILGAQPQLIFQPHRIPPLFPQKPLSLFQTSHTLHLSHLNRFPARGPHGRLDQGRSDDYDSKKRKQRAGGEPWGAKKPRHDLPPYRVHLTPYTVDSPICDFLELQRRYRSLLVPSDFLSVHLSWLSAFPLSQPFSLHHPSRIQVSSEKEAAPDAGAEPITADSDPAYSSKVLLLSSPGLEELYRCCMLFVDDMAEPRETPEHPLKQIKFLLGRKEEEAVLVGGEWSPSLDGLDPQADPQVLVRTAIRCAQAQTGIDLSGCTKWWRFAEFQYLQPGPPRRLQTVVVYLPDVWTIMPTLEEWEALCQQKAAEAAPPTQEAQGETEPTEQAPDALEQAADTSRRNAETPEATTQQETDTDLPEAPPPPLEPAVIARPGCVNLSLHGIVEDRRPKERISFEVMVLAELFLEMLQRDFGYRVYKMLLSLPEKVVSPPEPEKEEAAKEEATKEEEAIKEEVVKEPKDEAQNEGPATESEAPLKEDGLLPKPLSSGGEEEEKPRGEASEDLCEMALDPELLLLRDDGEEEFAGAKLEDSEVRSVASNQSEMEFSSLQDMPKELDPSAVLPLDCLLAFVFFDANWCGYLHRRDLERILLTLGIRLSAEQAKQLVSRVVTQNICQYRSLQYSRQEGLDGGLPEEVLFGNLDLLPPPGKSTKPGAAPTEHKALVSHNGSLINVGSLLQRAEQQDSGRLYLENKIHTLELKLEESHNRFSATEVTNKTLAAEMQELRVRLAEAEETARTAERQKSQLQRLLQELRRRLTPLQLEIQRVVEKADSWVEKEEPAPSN

B1: GST-SIAH2 (enzyme, human, UniProt O43255 1-324, looked up)
chain: MSRPSSTGPSANKPCSKQPPPQPQHTPSPAAPPAAATISAAGPGSSAVPAAAAVISGPGGGGGAGPVSPQHHELTSLFECPVCFDYVLPPILQCQAGHLVCNQCRQKLSCCPTCRGALTPSIRNLAMEKVASAVLFPCKYATTGCSLTLHHTEKPEHEDICEYRPYSCPCPGASCKWQGSLEAVMSHLMHAHKSITTLQGEDIVFLATDINLPGAVDWVMMQSCFGHHFMLVLEKQEKYEGHQQFFAIVLLIGTRKQAENFAYRLELNGNRRRLTWEATPRSIHDGVAAAIMNSDCLVFDTAIAHLFADNGNLGINVTISTCCP
notes: E3 ubiquitin ligase SIAH2, human, bacterially expressed as GST-SIAH2; also called purified glutathione S-transferase (GST) SIAH2; source: E. coli BL21, purified
Regarding B1, the binding result (with His-DBC1; in assay [1]) was “binds” in each case.
